Experimental data as given in PMC11958688.

Experiments:
Experiment in all cases: fluorescence polarisation; FITC-labelled peptide fixed at 4 nM, arrestin titrated (0-50 μM; 0-3.20 μM for C-tail_6P); 20 mM HEPES pH 7.4, 100 mM NaCl, 0.01% DDM; room temperature, 30 min; One Site–Total fit; triplicate
[1] = target: NTSR1 C-tail peptide phosphorylated at Thr407/Ser409/Ser410 (human)
[2] = target: NTSR1 C-tail peptide with hexa-phosphorylation at Ser401/Ser403/Ser404 and Thr407/Ser409/Ser410 (human)
[3] = target: NTSR1 C-tail peptide phosphorylated at Ser401/Ser403/Ser404 (human)

Kd [1]: 3.77 µM
Kd [2]: 35 nM
Kd [3]: 5.11 µM
Substance: human βArr1 truncated at residue 382 (constitutively active variant) (from UniProt P49407 1-382) (domain or fragment)
